Km data for two molecules are collected here from paper PMC4044012, “Genome-Based Discovery of a Novel Membrane-Bound 1,6-Dihydroxyphenazine Prenyltransferase from a Marine Actinomycete” (PLoS ONE, 2014).

What all share (test): prenyltransferase assay with E. coli membrane fraction, HPLC-UV product quantification
One data set has as its target T1, Mpz10 (Streptomyces sp. SpC080624SC-11, UniProt A0A068CM06).
T1 construct: NcoI/EcoRI in pET-28a(+) (pPH23), apparently untagged; E. coli Rosetta2(DE3)pLysS membrane fraction
T1 sequence (A0A068CM06 1-331): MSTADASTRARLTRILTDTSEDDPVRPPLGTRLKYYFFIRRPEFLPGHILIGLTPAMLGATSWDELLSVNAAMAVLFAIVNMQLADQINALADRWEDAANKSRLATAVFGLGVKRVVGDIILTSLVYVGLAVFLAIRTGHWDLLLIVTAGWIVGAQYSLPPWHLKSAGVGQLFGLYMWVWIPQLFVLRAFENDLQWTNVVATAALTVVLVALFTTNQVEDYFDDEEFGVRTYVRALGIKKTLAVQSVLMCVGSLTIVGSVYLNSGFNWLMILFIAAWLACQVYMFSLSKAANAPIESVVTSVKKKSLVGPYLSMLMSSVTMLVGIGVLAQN
It counts as biochemical. As to conditions: read-out: apparent Km; DMAPP co-substrate, 10 mM MgCl2, 50 mM Tris-HCl pH 8.1, 30°C.

Substrate in data set [1]: Oc1cccc2nc3c(O)cccc3nc12
It counts as biochemical, Streptomyces sp. SpC080624SC-11. As to conditions: 0.5 mM DMAPP constant, 10 mM MgCl2, 50 mM Tris-HCl pH 8.1, 30°C.

Substrate in data set [2]: CC(C)=CCOP(=O)(O)OP(=O)(O)O
The format is biochemical, Streptomyces sp. SpC080624SC-11. As to conditions: 0.2 mM 1,6-dihydroxyphenazine constant, 10 mM MgCl2, 50 mM Tris-HCl pH 8.1, 30°C.

As usually defined, the Km is the concentration of substrate that gives half-maximal velocity.

For the molecule `Oc1cccc2nc3ccccc3nc12` [1-hydroxyphenazine], the Michaelis-Menten constant (Km) at Mpz10 amounted to 9.8 µM.

B1: Mpz10 (Streptomyces sp. SpC080624SC-11) (protein)
chain: T1 sequence (A0A068CM06 1-331)
notes: NcoI/EcoRI in pET-28a(+) (pPH23), apparently untagged; E. coli Rosetta2(DE3)pLysS membrane fraction
As to B1, the Michaelis constant (Km) was found to be 53 µM in data set [1] and 153 µM in data set [2].
